Test: soluble on expression in E. coli; label from the status in PepcDB or PDB records
In the case of “GPGSMINWCEGCSNRNNNTQPELVLGNETFVTHGVAAPDKGSKYPLGGPFRLRESRTGNYITDKELFQDHWTLLYFGFSKCAEVCPSTLRFITDVMKACDEKLAGDKNLSTEAARLQAVFLSVDSRRDTPEVLEGFVSKYDPRVRGLTGTSKEIEQAARAWRVYYSSIDETDEEKSAREAKGVPMVGADDDTYQLDHSSAIYLVGVDGKLKDFFFKEMGVADAVGRLEVHLQDVYGFKDTRG”, the “soluble on expression in E. coli” value is reported as “not soluble”.
With “GPGSMIRTTAAAARLPQSTQGWVPLMRRALEFPIDSVTFPSHFYLHTVTNGTASTVGFSPQKEPVGLTALRQCAVLVLLSPAATGNGFQDMCITLTKRTATMGSHKSEMSFPGGHVDDDETLRNAAQRETLEEVGLPPSEYEIIGSLTPITTNALSARVTPFVAVATSPAQPYRASPVEVDSIHYLHMSMLLLSASTGHARVIKYRSFTSDRPCFFPCFFASPAQTVVSSAVCRSPKATGVADDCGFDPMLPEDF” the “soluble on expression in E. coli” value was “not soluble”.
For “GPGSMKRHGVRLRRSIKETAVTIGCDEAGRGPLAGPVVGAAVSRIPVSSFNNEFDQLYEAPEQFQIFDSKSVSERQRDLVFAMITGHVDFFDIASCKKFVVHHCAGDEATSLTLSSKKLDSHVKLSKLPFKKLLSMQTPYLITYHGYNSAGNYVYFWSIGIANHTYIDEYNIYNASMNTMHRSAQSIWHMLSDARFSHEAAPRPRSSSIAQYLFSRFCTAANHDNEKRYQVPHHLELLKGATEYFDFEPIQPPLVLIDGHAVPGPSYDYFTSVRIGGDVQPIIEGDKRSLSIAAASCLAKVTRDELMNYIDALYPGYGFRDNKGYPVEQHMKYVAKNGLCPIHRKTYRPCRTVLEKGLQRK”, the “soluble on expression in E. coli” value was “not soluble”.
In the case of “GPGSMLARGCVLRWHAVSARRVLGLHDGQSYTPADIKKAFRERALTAHPDAGGDADGFRQLQRAYEVLLHEHSVGKKGSEAAAASDDSEGGSGFYAHPHAEWCNDMRSQRAYWRDMYTEMNMNPNSCGSHRHASNTHYQARQHYRTYGEGLGEDFQKEFKSSSFAGGGQRGSQMNFSTWYFYRPYYSNYRNPFGTGFTPEEIRRAEQEQRRGFARAVARHACLWSGLAFVVYLHERNNRVWRAVEARDKGYKDPEYWEQLRKDEEEARRRSRAPLRLEQHWLDAPLMRSLMDLTEGGHSGGCGKNGQDAEDNISGAARAGTAWATQQARMAQERRRQAMSSTRGMRRGASGDVGGPRVVSYQGRPFTPNGVRGMRNTAPKTPKTYADDVTYEMDDDDDV”, the “soluble on expression in E. coli” value is reported as “not soluble”.
In the case of “GPGSMLHPYIAGFDGLTCVAGTPADTLARNPDTGTTGRGTGSGVEGVFGTSLDVAGQLAGFETLTSASLNNNFLYDGLPSSGVTLREPLLSTHLTRSPTTLSTVGEAAMQPTQNPTQTPQQDPLPDLNTLATNAFFPFPSAAGAASAEGGQQQMATANLYGASQLESIMKASAGDGKSASTAPEPAANNLLGRLTVSTLAAQSATPGTSPQSQPCPVPQFTPLGAGACSNASRSSAPSYSSASVPIGCGPQMCSGDTSFLYPNFVNEMSSVTPPQSVQGHTEGFVAGVTTPPAMPMNSSTMSNKGGSMNDNTSTSLSQATSSGIATSSGQPNDVEVRSNLFVCGLPVSVRDKELLELFEKHGEIESAKVMLDIHTGRIRGIAFVKFKNVEHAENAVDALNGTTVNGHQITVRVANSRAAYLPGNPTNKTFVRNVPLTVSRTTLFEYFAQFGEVTDLSIKSDTAQGRHNPSGRSASTTEDGADDKLNIVFITYSTKEAAAKAAEATHTKTPFKECNGVPLLAKVAEDTVRRMERLSRRQRPATGAEGTREVSTSSSSTNVASMSRFAAPSMGAALPTGMMMPPMMPMAGSFPPGTFVSVPTMGNTPDLTAPTMMPASVAGDHMTALRDASGNPIYSPAQPNPATATGGMAYAMPGNMAQPSIFFSAQPPPPAINQSPPQQSQQQPQAQPQTLYISTPNGFVPAPQQHQQQQQLPQPPPPQQQQPLQFFPAPPLLPQVPQQSQQTMPMPGAAPGQLVYMQTPNGSMMPVMYGGAQPATASMLPTQQMNPYFVMMGGQPPSNQ”, the “soluble on expression in E. coli” value is reported as “soluble”.
For “GPGSMNPHSRMPEDGGNAQPNETHRLMVGAAGQRPNVSGQFGKSTSPSLVAFAFLHLPLEDGCGAEEEEQNFLAFDVTTWATRIRNEGISGAVVDLWGAYNYYWHQADDRVQLALDSLASWMHALEMDRDPADRFTDLGRILLQVFWLQMMVTTANPGITISTLCARLHMAVHEAETCARATKPLA”, the “soluble on expression in E. coli” value was “soluble”.
For “GPGSMNRAESSANALGEEFVKNMNTALDIVESLVAKGEAQFAILASAKSTFCVGADIDQMYTVTDPAVAVQVPTVGHKLFNRIEQEKFPIVAAINGLALGGGFEMSLACHQRLMASTAKVGFPECLLGLLPGGGGTVRTQRLCGLTKTVQWIMTSKQIKPQEAKSAGACDVIIPADDRWNGEHRFYEGVRKWAGQYLSNKPARLSKRKNISLMDQVLENTTFGRRKVADETIKMLNKKTRGKYIAQYKALECIMYSATHSNQQGFDKECRGFAELLCSPEAKNQMSLYFLQEGMKKSADKTGVPKDKVMPVNRVGVIGAGVMGSGIVHYFAKNNIPVAVKDLTEESVKQGITNVRAEFERAVRRKRMVTAELDGKMALVTGGTTNEVFRDADVIVEAAVEVMDIKKKVIQQLEKDGILHSKSLFATNTSSLSLTEMQTVAKCPHNIVGMHFFNPVSKMPLVEVIKGKSTSTEAAAAIFNLALKTGKIPIIVNDGPGFLVNRILGVYMAEAGRLAVDERCHPACVDEAILAFGMPMGPFRLLDEVGLDVACHVGPVLANGLKSDRFSVSATISQMVADGYLGRKNRKGFYTYAAEGKEAGLNSAVLQKYLGEELSASISETEIVDRCVLLMVNEATRILDEGIAMSPEDVDTGMVWGTGFPPFRGGLLQYADHRGIANVVAALEQLQRKTKRDYFAPTETLKKMAIEGKRFFPTRPYVPYQERHGYPKVTY”, the “soluble on expression in E. coli” value was “not soluble”.
In the case of “GPGSMPPKKKVERKEEQVFVEENGSYVHQREMARYTGGVRRLTDSNFCCRHGQGTYSSPLIHYEGNWSEDEMHGNGTLRFLVSGDSYTGQFVHGVMEGCGTYIWASGAMYDGGWRGNRMHGLGTYTDVGGKVWSGKFYNGSGPGLTPCVTTGGGVAAADKRDVLKDEKEG”, the “soluble on expression in E. coli” value is reported as “not soluble”.
In the case of “GPGSMPRGAIPTGQDWEEQRFNFQQRGSGGSAQPRKVTERDANRAMQSGQNVQVQRKEHQRFNQQTVSAGANAKKLDEDNETLKVKKVDPHLRVRIMKERQALNWSQQDLAQRISERVSVVAEYESGKAVQEERVIVKMEKALGVHLRGAKAGEPMGKTRPAPKAQE”, the “soluble on expression in E. coli” value is reported as “soluble”.
In the case of “GPGSMPSKEASSRNLPISGRDTNGKTYRSTDEMWKAELTGDLYDPEKGWYGKALEYWRTVPATVSGVLGGMDHVHDVDIEGSRNFIASLPGHGTSRALDCGAGIGRITKNLLTKLYATTDLLEPVKHMLEEAKRELAGMPVGKFILASMETATLPPNTYDLIVIQWTAIYLTDADFVKFFKHCQQALTPNGYIFFKENCSTGDRFLVDKEDSSLTRSDIHYKRLFNESGVRVVKEAFQEEWPTDLFPLKMYALK”, the “soluble on expression in E. coli” value is reported as “soluble”.
With “GPGSMRDLNKRQQKFVCGCLGITSWDGKDIPFYVETMPKINDVVWVKITQVNDTSAVVQLLEYGKREGIIPYTEVTRRRVRSMGKLIKVGRTEPAQVIRIDKDKGYIDLSKKLVTPNEAKACEAHFRQGNEVRSIVCHVAELCDIPAMDAMEMIAYPLYQREPGKHAWTWLYELNQTEDVERILGPLKLEKAISDCLMLTLKNAMRLKVLTLFAEVEITCFACDGVEAIRDVLILGRSYGEGSDPQIHLSVNIIGPPKYGIRARTDMKEEGIQRMKEAIEAMTAEIKKRGGQLKVVSPPQPHGDADEGKKGFDGEDDDDEDAD” the “soluble on expression in E. coli” value was “soluble”.
For “GPGSMRGKTKKRKIYKRFSSLPKTETSTLPTVHSHTTCIRVQHVSHHLHAYICTLVSGMSHHRMWPSPITPSRTDATTTTTKTTTKNDTYSPHKKNTNTPHAKGRSYIVNLCHSFYSPTGDETVIWVTNVVRSCAAKYNYIPHILHSHETLVKRRCNENAANEKCLIRC”, the “soluble on expression in E. coli” value was “not soluble”.
In the case of “GPGSMSAAVTWLQNSLGIDVTGEWARHVHLNVGGTLYTTRRYTLRELKDHRIFGPILDGHAHRCEDGSFLIDRDGSLFRYIIAYLRDGRLSVPENFAEWDMLLQEVRYYELPAMEKSVMDHFEFQQSVFRRQLPHGVYVWWPPASSQIEEGATVKAAPCDCPASVPPPPLSLFALPITDSATGRCEARGATEDQTRALEKVHVEAAADAATRSSAGAAPSSCSSASMSVRIVPPLPGLTVEMSSGRRVMFRETQVLQDLDQLVTVLLTAYGFSIQHWDTERGRVLLTLPGLM”, the “soluble on expression in E. coli” value is reported as “not soluble”.
In the case of “GPGSMSAIVPAAHAREDMGGCAPCRVSSFHPCEGDGAEEKECNASSGADAAAAAEPLDPLRCFSAFDVLRDVLAACTCAPALSRSTEKGADSPSLLPGAPLPSAWRTEQTREALRTLVDLVAADVGVSSARHGQGEAPEEAEIARSRLSVDALLLHLTTEGPNLRAALRRRRRQLLPMPPRDDATTQSEREACDEAHAACEEDEALAALTRCAASVALINRDLGSSARKGRKAVQTAASCVLQTRTALSLLRTSSLVHQPLRAGAGHAAASRSAIAAADVSAYWCSTGCMGLDQALGGGGFRSGWVTEVYGEAGAGKTQLGLQCLLQQAATDVCHAAVALALASGADFTSLAHMATTTGMCGSRSPVVKCMEVFDRDAVEAARCAVVYLVSEDVPTSRLGPLAAAAVGRAVRAVRLHPLVNQLPSGVVKTVWGCVERTCTVPTVLSRLQIRHVASVAEVLRLLEPLPHPQLAQVSRTSSPPNVIPNRAQRPRNSNLVEAVRVLAGTHGRAVVVLDSVAAAVVAGQWDMQGVAQADATVTALSLRLRQAAMTHNWCIVVTNQVRAIPTTARQRQCALAPIKRARSPTTSSTASAPSVTRTVVPALGFSWASAAHCRVFLRKSLSHGVRQLVLRHAPSHPPAQASYLITEHGIEDA”, the “soluble on expression in E. coli” value is reported as “not soluble”.
With “GPGSMSKGFEVYPLTGSHKEVVINEALIRSAISFKPSLTTEDDRVRVVGNQEKALCEEKVQKEAAGIALEDVQTLLLSFRGIKRLENLSCLRSLTKLHLDNNRIRCIEHLESLVHLEWLDLSYNAIEVIDGLQALQHLNCLSLYANKITAVDGLTCLPELNTLSLGRNPLENIDETVHYLHHLPRLQVLTLKECPLAGLPNYRSRVLAFVRGLKFFDGHLVRHDEAAKAREAFRENLLTVDEEDEARAAAAKLQADQEIIASSYQQYNCPNEVMLFDELLHLDPEGRHMEAILRSEAVFSVAKEPLDRYQTEFNEQLRQLTAAMKDIRERRDADDAAYREAVTYTLRHSAAASLASMQRFEALAKGHIVKGVAQPVPGPAKRLPSQATRSLHAALDKLKKDLLEEEAHQYDVLEVLHNNTIAKWKSHSVEVVLQSSFEALLRLETDFQATVRHIFDAVFEERRKGDNAERAFRYVGQDDAMLAFLDNKEEYQRTVNEWYELRRKRVEELEMHHLKAEETLLNARANSILAAEQDRHRRRVHEVCQYVKEMSSRIDGCDH” the “soluble on expression in E. coli” value was “not soluble”.
For “GPGSMSKQLTFISAGATAAVLQSASAIVSKVAGGRVQTKTAKEAGRHAVVVGPETPIGVHTAVTEAPKSAQDPLFSGVSTVVVRAVLPRAAPDSVQLRDALDVYASAGIDTKEEVRSATEAFKKSAEVAVGKAKAKGVKRIVLVVKQASKHNCINELFKKISTETIESAGLTTEVVGTASVANQLIVNPESLGVVLLNDVAATEQIELAFAGVVGGVSRVYHTVEGGKISAGHSFKSVALAVAQELRELGLSSEADKVEAAASKNPRAVVSAL”, the “soluble on expression in E. coli” value was “not soluble”.
For “GPGSMSMNVYKRQEKLRLYRALLKGANRFPLRSRREIVTEEVRGAFRHPLNDSLTTKEVDYKLLLGWERAAAIQTYAENMYWFHSRDEVSREMMHHSLERDRQRIREMERCNAVGNAEIKTPEVTEFKSSMYHVHPDYHGKIGQMPLTHSRDIWRARGQYGSDVGGPRQKFYVRRFKALFPQGW”, the “soluble on expression in E. coli” value was “not soluble”.
With “GPGSMSRTQTSSKSVPKNIAVYCRVRPPVPNEKGHTFQNISYDDSDSRAIAVARKSGTKALEKTYLFNRVFRPTATQKDVYETFAKGAVDAAFDGQHGVLFVYGQTGSGKTFTISNDEPNNEGVLQRSMRDIWNRIASDTANDYSCSVSYVQLYNEILTDLLDDAKGKVRIQMGSEGRGDVVMVSDSTGMAIEREVKDYKSTMACFQVGLARKEMASTSMNSTSSRSHTIFTLNIVKAKKVVAVTV” the “soluble on expression in E. coli” value was “not soluble”.
